Biological target: T1, IGF1R (IGF1 receptor), antigen coated on the ELISA plate (UniProt P08069 31-932, limits assumed)
T1 construct: Construct not described; It may be the same histidine-tagged reagent as m8
Assay: ELISA, antigen coated at 2 µg/mL, antibody serially diluted, anti-kappa or anti-lambda HRP detection (FIG. 10)
Description: The absorbance at 450 nm was measured using a microtiter plate reader.

T1 sequence (P08069 31-932 limits assumed): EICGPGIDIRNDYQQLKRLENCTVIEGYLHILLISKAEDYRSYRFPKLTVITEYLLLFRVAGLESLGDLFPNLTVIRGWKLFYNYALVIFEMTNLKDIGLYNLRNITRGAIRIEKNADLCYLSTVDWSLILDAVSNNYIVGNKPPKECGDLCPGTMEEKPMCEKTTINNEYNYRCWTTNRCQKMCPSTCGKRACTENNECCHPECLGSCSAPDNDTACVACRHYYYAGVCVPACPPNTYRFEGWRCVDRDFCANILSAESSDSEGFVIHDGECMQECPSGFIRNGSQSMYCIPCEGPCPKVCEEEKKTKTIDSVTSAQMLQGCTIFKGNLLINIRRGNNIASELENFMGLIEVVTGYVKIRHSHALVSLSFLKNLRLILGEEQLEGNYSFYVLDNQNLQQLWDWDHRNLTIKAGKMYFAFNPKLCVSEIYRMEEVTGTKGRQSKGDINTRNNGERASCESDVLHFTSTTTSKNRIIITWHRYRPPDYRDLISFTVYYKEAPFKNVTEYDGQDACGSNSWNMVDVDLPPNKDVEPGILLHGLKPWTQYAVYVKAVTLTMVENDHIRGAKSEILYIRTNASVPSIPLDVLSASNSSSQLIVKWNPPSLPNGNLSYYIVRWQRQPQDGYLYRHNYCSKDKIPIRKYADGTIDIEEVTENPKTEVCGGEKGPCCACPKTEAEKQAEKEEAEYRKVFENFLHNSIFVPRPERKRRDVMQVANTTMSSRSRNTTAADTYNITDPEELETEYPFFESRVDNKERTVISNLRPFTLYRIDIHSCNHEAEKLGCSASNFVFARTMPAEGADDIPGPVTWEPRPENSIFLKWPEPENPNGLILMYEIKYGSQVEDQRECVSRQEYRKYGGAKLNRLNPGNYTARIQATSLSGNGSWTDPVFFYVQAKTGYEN

binding result: no binding
B1: anti-EGFR conventional antibody (monospecific bivalent, kappa light chain; parental arm of iMab-EI) (antibody, V domains shown)
VH: QVQLQESGPGLVKPSETLSLTCTVSGGSVSSGDYYWTWIRQSPGKGLEWIGHIYYSGNTNYNPSLKSRLTISIDTSKTQFSLKLSSVTAADTAIYYCVRDRVTGAFDIWGQGTMVTVSS
VL: DIQMTQSPSSLSASVGDRVTITCQASQDISNYLNWYQQKPGKAPKLLIYDASNLETGVPSRFSGSGSGTDFTFTISSLQPEDIATYFCQHFDHLPLAFGGGTKVEIK
notes: Conventional IgG with kappa light chain; constant regions not specified; also called anti-EGFR antibody; parental arm antibody

— patent publication US20140155581A1 (AstraZeneca / MedImmune, published 2014)
